Consider three substances from publication PMC5764988.

This experiment has as its target MagD, the Type II alpha-2-macroglobulin from Pseudomonas aeruginosa (Pseudomonas aeruginosa) (UniProt Q9HVT2). Put plainly: AUC; sedimentation velocity, 35,000 rpm, 20 °C, absorbance at 280 nm; 0.25, 0.5 and 1 mg/mL; 25 mM HEPES pH 7.5, 100 mM NaCl; c(s) analysis with Sedfit; co-purified complexes after analytical gel filtration.

For the substance MagA (natural protein), the stoichiometry N stood at 1.

Substance MagB (natural protein) yielded a stoichiometry N of 1.

MagF (natural protein) came in with a stoichiometry N of 1.
